This series concerns the target T1, TF-RDR2-RRM (Arabidopsis thaliana, UniProt O82504 1-100).
T1 sequence: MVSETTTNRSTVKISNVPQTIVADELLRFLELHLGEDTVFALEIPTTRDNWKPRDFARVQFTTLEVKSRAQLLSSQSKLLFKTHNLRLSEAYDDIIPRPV
Put plainly: EMSA; protein 1, 3, 9 uM; RNA 2 uM; 2 mM Mg2+; 25 mM Hepes-KOH pH 7.6, 50 mM NaCl, 2 mM MgCl2, RNase inhibitor, 30 min room temperature; 6% native PAGE. As to conditions: protein: recombinant; tags: N-terminal trigger factor (TF) fusion, pCold-TF; label: 5' Alexa647; single strand.

The source of these data is article PMC8713982, “Structure and RNA template requirements of Arabidopsis RNA-DEPENDENT RNA POLYMERASE 2”.

B1: 37-nt ssRNA (ssRNA)
RNA: UCCGUCCGUCUGCUGUGGGUCUCCUUUCUCCUUCUUC
Turning to B1, the binding result is “binds”.
